Measured values taken from patent US20240352445A1 (ABWIZ BIO, published 2024).

Target: SARS-CoV-2 spike protein trimer, wild type (SARS-CoV-2, UniProt P0DTC2 16-1213)
Experiment: ELISA, purified IgG

Row | Binder | binding result
1 | SEQ ID NO 12 (antibody, V domains shown, also called selected clone from LxC libraries; LxC clone) VH: EVQLVESGGGLVQPGGSLRLSCTVSGFSLSTYAMSWVRQAPGKGLEWIGVIASNADTYYASWAKGRFTISRDNSKNTLYLQMNSLRAEDTAVYYCARHPGSAGYGYAVYYAMDPWGQGTLVTVSS VL: DIQMTQSPSSLSASVGDRVTITCQASQPIHYAINWYQQKPGKAPKLLIYGTSHRKMGVPSRFSGSGSGTDYTLTISSLQPEDFATYYCQQGYIVALKFGGGTKVEIK | binds
2 | SEQ ID NO 15 (antibody, V domains shown, As m4) VH: EVQLVESGGGLVQPGGSLRLSCTVSGFSLSTYAMSWVRQAPGKGLEWIGVIASNADTYYASWAKGRFTISRDNSKNTLYLQMNSLRAEDTAVYYCARHPGSAGYGYAVYYAMDPWGQGTLVTVSS VL: DIQMTQSPSSLSASVGDRVTITCQASQKIHYAINWYQQKPGKAPKLLIYGTSYLGGGVPSRFSGSGSGTDFTLTISSLQPEDFATYYCQQGYIVPNSFGGGTKVEIK | binds
3 | SEQ ID NO 16 (antibody, V domains shown, As m4) VH: EVQLVESGGGLVQPGGSLRLSCTVSGFSLSTYAMSWVRQAPGKGLEWIGVIASNADTYYASWAKGRFTISRDNSKNTLYLQMNSLRAEDTAVYYCARHPGSAGYGYAVYYAMDPWGQGTLVTVSS VL: DIQMTQSPSSLSASVGDRVTITCQASQDVKYAINWYQQKPGKAPKLLIYGTSSRGEGVPSRFSGSGSGTDYTLTISSLQPEDFATYYCQQGYVVSIFFGGGTKVEIK | binds
4 | SEQ ID NO 17 (antibody, V domains shown, As m4) VH: EVQLVESGGGLVQPGGSLRLSCTVSGFSLSTYAMSWVRQAPGKGLEWIGVIASNADTYYASWAKGRFTISRDNSKNTLYLQMNSLRAEDTAVYYCARHPGSAGYGYAVYYAMDPWGQGTLVTVSS VL: DIQMTQSPSSLSASVGDRVTITCQASQPIYYGINWYQQKPGKAPKLLIYGHTYRAWGVPSRFSGSGSGTDFTLTISSLQPEDFATYYCQQGYRVGLGFGGGTKVEIK | binds
5 | SEQ ID NO 18 (antibody, V domains shown, As m4; also called selected clone from LxC libraries; LxC clone) VH: EVQLVESGGGLVQPGGSLRLSCTVSGFSLSTYAMSWVRQAPGKGLEWIGVIASNADTYYASWAKGRFTISRDNSKNTLYLQMNSLRAEDTAVYYCARHPGSAGYGYAVYYAMDPWGQGTLVTVSS VL: DIQMTQSPSSLSASVGDRVTITCKASEDIRYGLNWYQQKPGKAPKLLIYGGSYLRWGVPSRFSGSGSGTDYTLTISSLQPEDFATYYCQQGYRVPIRFGGGTKVEIK | binds
